Source: patent US20050282743A1, “Molecular interactions in cells” (Arbor Vita Corporation, priority 2001, published 2005)

Experiments:
Assay in all cases: G' assay
[1] = target: T1, GST-MINT1 PDZ domains 1, 2, Q02410
T1 chain: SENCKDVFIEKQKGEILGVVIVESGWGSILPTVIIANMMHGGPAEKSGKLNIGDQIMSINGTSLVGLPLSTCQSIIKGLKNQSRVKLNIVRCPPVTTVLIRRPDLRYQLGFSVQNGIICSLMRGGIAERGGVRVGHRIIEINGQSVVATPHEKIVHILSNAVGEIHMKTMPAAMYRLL

[2] = target: T2, GST-KIAA1526 PDZ domain 1 (Homo sapiens (Human)), Q9P202
T2 chain: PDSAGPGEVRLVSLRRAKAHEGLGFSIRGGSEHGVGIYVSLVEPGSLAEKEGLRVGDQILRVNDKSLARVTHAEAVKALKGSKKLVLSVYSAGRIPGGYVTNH

[3] = target: T3, GST-KIAA0807(S) PDZ domain 1 (Homo sapiens (Human)), Q6P0Q8
T3 chain: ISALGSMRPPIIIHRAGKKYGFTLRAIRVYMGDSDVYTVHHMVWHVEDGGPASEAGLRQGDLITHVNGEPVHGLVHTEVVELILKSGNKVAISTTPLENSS

[4] = target: GST-KIAA807 [GST: P08515]
[5] = target: T4, GST-Shank 1 PDZ domain 1 (Homo sapiens (Human)), Q9UPX8
T4 chain: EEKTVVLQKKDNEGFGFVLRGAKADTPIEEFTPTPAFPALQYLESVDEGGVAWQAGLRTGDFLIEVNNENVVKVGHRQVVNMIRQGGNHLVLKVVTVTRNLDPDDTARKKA

[6] = target: T5, GST-PTPL1 PDZ domain 4 (Homo sapiens (Human)), Q12923
T5 chain: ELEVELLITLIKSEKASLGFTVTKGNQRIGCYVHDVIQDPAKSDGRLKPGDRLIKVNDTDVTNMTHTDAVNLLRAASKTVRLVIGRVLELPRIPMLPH

[7] = target: T6, GST-MUPP1 PDZ domain 10 (Homo sapiens (Human)), O75970
T6 chain: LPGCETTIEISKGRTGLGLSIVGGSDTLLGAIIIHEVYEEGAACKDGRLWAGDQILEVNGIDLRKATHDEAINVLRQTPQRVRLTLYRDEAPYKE

[8] = target: T7, GST-INADL PDZ domain 8 (Homo sapiens (Human)), Q8NI35
T7 chain: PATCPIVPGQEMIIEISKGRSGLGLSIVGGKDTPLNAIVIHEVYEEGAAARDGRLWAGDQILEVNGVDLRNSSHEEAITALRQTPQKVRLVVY

[9] = target: T8, GST-KIAA0382 PDZ domain 1 (Canis lupus familiaris (Dog) (Canis familiaris)), A0A8I3
T8 chain: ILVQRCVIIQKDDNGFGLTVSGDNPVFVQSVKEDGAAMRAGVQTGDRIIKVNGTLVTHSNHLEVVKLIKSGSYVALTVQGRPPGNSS

[10] = target: T9, GST-KIAA0973 PDZ domain 1 (Homo sapiens (Human)), Q9Y2H9
T9 chain: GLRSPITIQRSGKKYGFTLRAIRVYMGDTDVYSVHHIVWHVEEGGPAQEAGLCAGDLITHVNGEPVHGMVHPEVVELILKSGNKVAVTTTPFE

[11] = target: T10, GST-AIPC PDZ domain 1 (Homo sapiens (Human)), O15018
T10 chain: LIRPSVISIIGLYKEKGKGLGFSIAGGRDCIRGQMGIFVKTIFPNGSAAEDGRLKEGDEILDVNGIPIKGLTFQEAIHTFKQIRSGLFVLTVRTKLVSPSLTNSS

[12] = target: T11, GST-APXL-1 PDZ domain 1 (Homo sapiens (Human)), Q13796
T11 chain: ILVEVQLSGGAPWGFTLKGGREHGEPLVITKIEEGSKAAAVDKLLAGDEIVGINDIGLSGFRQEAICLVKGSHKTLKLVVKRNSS

[13] = target: T12, GST-MINT1 PDZ domain 2 (Mus musculus (Mouse)), B2RUJ5
T12 chain: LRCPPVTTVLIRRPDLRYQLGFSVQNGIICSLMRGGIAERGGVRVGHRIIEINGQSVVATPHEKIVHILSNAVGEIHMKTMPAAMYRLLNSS

[14] = target: T13, GST-LIM-RIL PDZ domain 1 (Homo sapiens (Human)), P50479
T13 chain: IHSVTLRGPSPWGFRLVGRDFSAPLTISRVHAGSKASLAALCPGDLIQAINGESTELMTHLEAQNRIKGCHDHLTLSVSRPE

[15] = target: T14, GST-KIAA1634 PDZ domain 2 (Homo sapiens (Human)), Q5TCQ9
T14 chain: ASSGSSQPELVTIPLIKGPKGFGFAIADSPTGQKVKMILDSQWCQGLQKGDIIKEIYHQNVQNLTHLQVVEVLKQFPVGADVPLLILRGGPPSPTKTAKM

[16] = target: T15, GST-PTPL1 PDZ domain 2 (Homo sapiens (Human)), Q12923
T15 chain: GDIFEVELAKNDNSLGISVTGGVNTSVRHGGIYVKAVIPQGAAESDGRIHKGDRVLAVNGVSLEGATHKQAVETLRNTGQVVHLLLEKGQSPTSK

[17] = target: GST-PSD95 PDZ domains 1, 2, 3 (Homo sapiens), P78352
[18] = target: GST-DLG1 PDZ domains 1, 2 (Homo sapiens), Q12959
[19] = target: T16, GST-NeDLG PDZ domains 1, 2, Q92796
T16 chain: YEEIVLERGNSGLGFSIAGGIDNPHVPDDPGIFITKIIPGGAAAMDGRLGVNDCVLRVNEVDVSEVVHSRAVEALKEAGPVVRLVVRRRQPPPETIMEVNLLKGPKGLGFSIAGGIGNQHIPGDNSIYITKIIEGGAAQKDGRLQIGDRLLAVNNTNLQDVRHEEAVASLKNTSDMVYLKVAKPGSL

[20] = target: GST-BAI-1 Associated Protein PDZ domain 2 (Mus musculus (Mouse)), Q6RHR9
[21] = target: T17, GST-TIP1 PDZ domain 1 (Table 9 insert) (Homo sapiens (Human)), O14907
T17 chain: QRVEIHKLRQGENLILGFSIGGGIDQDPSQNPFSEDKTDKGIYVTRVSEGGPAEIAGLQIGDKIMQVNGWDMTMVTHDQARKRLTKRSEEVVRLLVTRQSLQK

[22] = target: GST-KIAA1634 PDZ domain 1 (Homo sapiens (Human)), Q5TCQ9
[23] = target: GST-PAR3 PDZ domain 3 (Homo sapiens (Human)), Q8TEW0
[24] = target: T18, GST-DLG1 PDZ domain 2 (Homo sapiens), Q12959
T18 chain: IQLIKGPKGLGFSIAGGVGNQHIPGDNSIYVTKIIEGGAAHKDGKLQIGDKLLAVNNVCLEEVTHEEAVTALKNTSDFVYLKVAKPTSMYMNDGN

[25] = target: GST-KIAA0147 PDZ domain 1 (Homo sapiens (Human)), Q14160
Also: key of the grades not given here.

Sequence of GST-PAR3 PDZ domain 3 (Homo sapiens (Human)), Q8TEW0 (Q8TEW0 579-681): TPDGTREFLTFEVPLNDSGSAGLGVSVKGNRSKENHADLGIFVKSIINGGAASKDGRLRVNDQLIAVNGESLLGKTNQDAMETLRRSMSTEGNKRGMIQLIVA
Sequence of GST-KIAA807 [GST: P08515] (P08515 whole entry, the tested form may be a part): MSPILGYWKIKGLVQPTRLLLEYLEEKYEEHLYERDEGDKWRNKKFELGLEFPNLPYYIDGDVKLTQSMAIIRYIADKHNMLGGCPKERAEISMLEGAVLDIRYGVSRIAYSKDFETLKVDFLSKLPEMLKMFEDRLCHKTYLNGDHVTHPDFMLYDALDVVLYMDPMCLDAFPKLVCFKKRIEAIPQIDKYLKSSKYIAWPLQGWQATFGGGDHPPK
Sequence of GST-KIAA1634 PDZ domain 1 (Homo sapiens (Human)), Q5TCQ9 (Q5TCQ9 401-502): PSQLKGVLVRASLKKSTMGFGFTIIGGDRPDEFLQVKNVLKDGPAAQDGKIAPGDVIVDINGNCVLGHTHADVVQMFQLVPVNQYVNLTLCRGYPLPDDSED
Sequence of GST-KIAA0147 PDZ domain 1 (Homo sapiens (Human)), Q14160 (Q14160 other isoform, or with tags, fused parts or gaps): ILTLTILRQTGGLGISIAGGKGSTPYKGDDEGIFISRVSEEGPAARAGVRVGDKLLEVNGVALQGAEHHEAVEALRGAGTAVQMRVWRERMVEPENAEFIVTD
Sequence of GST-PSD95 PDZ domains 1, 2, 3 (Homo sapiens), P78352 (P78352 62-395): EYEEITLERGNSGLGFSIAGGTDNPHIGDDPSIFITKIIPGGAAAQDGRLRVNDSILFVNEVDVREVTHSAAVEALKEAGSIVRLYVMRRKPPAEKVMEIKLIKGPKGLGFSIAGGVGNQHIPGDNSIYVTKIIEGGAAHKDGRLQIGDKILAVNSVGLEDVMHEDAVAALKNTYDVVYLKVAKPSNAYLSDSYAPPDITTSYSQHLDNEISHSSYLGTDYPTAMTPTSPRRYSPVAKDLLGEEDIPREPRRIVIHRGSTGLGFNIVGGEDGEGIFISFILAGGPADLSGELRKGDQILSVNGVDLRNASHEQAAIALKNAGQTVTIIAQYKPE
Sequence of GST-BAI-1 Associated Protein PDZ domain 2 (Mus musculus (Mouse)), Q6RHR9 (Q6RHR9 455-558): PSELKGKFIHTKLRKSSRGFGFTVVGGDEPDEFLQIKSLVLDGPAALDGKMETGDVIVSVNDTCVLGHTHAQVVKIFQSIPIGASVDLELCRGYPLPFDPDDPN

KAGYRAPRSYPKSNSSKEYV (modifications not checked) [claudin 7] gave a Classification [1] of 4 A450 class.

For SSPTYRALLLQGPSQSSSEA (modifications not checked) [GAIP (G-alpha interacting protein) RGS 19], the Classification [2] was 1 A450 class.

For LGYSIPSRSGASGLDKRDYV (modifications not checked) [claudin 9], the Classification [1] was 1 A450 class.

Binder KPQIAALKEETEEEVQDTRL (modifications not checked) [CFTCR (cystic fibrosis transmembrane conductance regulator)] has a Classification [3] of 2 A450 class, a Classification [4] of 1 A450 class and a Classification [5] of 1 A450 class.

ESKSFTRSTVDTMAQKTQAV (modifications not checked) [C5 Anaphylatoxin receptor] gave a Classification [6] of 1 A450 class.

With SPQPDSTDNDDYDDISAA (modifications not checked) [CD6] the Classification [3] was 1 A450 class and the Classification [4] was 1 A450 class.

Work on ENLELPVNPSSVVSERISSV (modifications not checked) [serotonin receptor 5-HT-2C] yielded a Classification [7] of 1 A450 class and a Classification [8] of 1 A450 class.

With KDSRPSFVGSSSGHTSTTL (modifications not checked) [CDw128B] the Classification [3] was 5 A450 class, the Classification [9] was 2 A450 class and the Classification [4] was 5 A450 class. For the same binder, the Classification [5] was 3 A450 class.

NSYVRDDAIFIKAIVDLTGL (modifications not checked) [TRAF2] showed a Classification [3] of 4 A450 class, a Classification [10] of 1 A450 class and a Classification [4] of 2 A450 class.

In the case of QQYQQRQSVIFHKRAPEQAL (modifications not checked) [muscarinic Ach receptor M4], the Classification [3] is reported as 1 A450 class, the Classification [11] is reported as 1 A450 class and the Classification [12] is reported as 1 A450 class. It also gave a Classification [4] of 1 A450 class.

INSVGSTASSSQPLLVHDDV (modifications not checked) [c-kit receptor] showed a Classification [13] of 1 A450 class, a Classification [14] of 1 A450 class and a Classification [7] of 1 A450 class. The Classification [8] was 1 A450 class.

Binder HPTDITGLPNLSDPSVSTVV (modifications not checked) [NMDA R2C] has a Classification [15] of 1 A450 class, a Classification [16] of 1 A450 class and a Classification [17] of 1 A450 class. It also gave a Classification [18] of 1 A450 class and a Classification [19] of 2 A450 class.

For IVFIIHSFLSAKVTRLGLLA (modifications not checked) [alpha-1-syntrophin], the Classification [3] was 1 A450 class.

Binder PRLKRMQQFEDLEDEIPQFV (modifications not checked) [RhoGAP 1 (PTPL1-associated)] has a Classification [6] of 2 A450 class.

For RDSFHRSSFRKAETQLSQGS (modifications not checked) [Clasp-5], the Classification [3] was 1 A450 class, the Classification [20] was 1 A450 class and the Classification [4] was 1 A450 class. It also gave a Classification [5] of 1 A450 class.

GPDGIITVNDFTQNPRVQLE (modifications not checked) [ropporin] was tested, and the Classification [21] was 1 A450 class.

GGEDFKTTNPSKQFDKNAYV (modifications not checked) [claudin 10] was tested, and the Classification [22] was 1 A450 class and the Classification [18] was 1 A450 class.

In the case of LLNVLQRQELGDGLDDEIAV (modifications not checked) [CAPON (carboxyl-terminal PDZ ligand of neuronal nitric oxide synthase) mRNA], the Classification [23] is reported as 1 A450 class, the Classification [3] is reported as 1 A450 class and the Classification [6] is reported as 1 A450 class. For the same binder, the Classification [11] was 1 A450 class, the Classification [12] was 1 A450 class and the Classification [4] was 1 A450 class.

VDPNSPAAKKKYVSYNNLVI (modifications not checked) [GLUR7 (metabotropic glutamate receptor)] gave a Classification [23] of 2 A450 class, a Classification [24] of 1 A450 class and a Classification [22] of 1 A450 class.

Binder PYQSQGFSTEEDEDEQVSAV (modifications not checked) [RA-GEF (ras/rap1A-assoc-GEF)] has a Classification [15] of 2 A450 class, a Classification [16] of 4 A450 class and a Classification [25] of 1 A450 class.

VISKATPALPTVSISSSAEV (modifications not checked) [Clasp-1] gave a Classification [3] of 1 A450 class, a Classification [11] of 1 A450 class and a Classification [1] of 1 A450 class. It also gave a Classification [4] of 1 A450 class.

DGGARTEDEVQSYPSKHDYV (modifications not checked) [claudin 18] was tested, and the Classification [1] was 1 A450 class.

With RPMESNPDTEGAQGETEDVL (modifications not checked) [parathyroid hormone receptor 2] the Classification [23] was 1 A450 class and the Classification [12] was 1 A450 class.

In the case of SYPTPRPYPKPAPSSGKDYV (modifications not checked) [claudin 1], the Classification [13] is reported as 1 A450 class and the Classification [8] is reported as 1 A450 class.
